Data from patent publication US20240392004A1 (IMMUNOWAKE, published 2024).
Positions count from the first letter of the chain named. Numbers in names are those of the source. Where two headings read alike, the source gives them in different places. Blank lines part the entries; values can stand above or below the binder they belong to.

Tests used:
Test in all cases: cell-based or functional assay
[1] = target: T1, human PD-1 on cells (HEK-PD-1 reporter cells; activated PBMC) (human, UniProt Q15116 25-288)
T1 sequence (Q15116 25-288): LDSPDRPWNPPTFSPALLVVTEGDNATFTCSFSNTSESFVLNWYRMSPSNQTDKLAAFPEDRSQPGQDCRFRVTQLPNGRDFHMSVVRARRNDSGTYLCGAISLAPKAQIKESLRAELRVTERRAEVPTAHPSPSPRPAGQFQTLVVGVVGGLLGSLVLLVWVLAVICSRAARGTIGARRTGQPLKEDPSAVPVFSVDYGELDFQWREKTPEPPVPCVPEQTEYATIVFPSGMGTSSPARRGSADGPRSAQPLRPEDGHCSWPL

[2] = target: T2, human IL-2 receptor (IL-2Rα, IL-2Rβ, IL-2Rγ) (human, UniProt P01589 22-272; P14784 27-551; P31785 23-369)
T2 sequence (looked up) 1: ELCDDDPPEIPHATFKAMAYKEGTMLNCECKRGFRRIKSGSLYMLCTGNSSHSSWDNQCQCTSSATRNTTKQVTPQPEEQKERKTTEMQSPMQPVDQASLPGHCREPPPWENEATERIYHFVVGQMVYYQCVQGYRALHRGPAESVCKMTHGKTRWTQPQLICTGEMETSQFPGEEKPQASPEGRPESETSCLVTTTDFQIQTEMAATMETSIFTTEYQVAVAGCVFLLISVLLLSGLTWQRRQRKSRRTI
T2 sequence (looked up) 2: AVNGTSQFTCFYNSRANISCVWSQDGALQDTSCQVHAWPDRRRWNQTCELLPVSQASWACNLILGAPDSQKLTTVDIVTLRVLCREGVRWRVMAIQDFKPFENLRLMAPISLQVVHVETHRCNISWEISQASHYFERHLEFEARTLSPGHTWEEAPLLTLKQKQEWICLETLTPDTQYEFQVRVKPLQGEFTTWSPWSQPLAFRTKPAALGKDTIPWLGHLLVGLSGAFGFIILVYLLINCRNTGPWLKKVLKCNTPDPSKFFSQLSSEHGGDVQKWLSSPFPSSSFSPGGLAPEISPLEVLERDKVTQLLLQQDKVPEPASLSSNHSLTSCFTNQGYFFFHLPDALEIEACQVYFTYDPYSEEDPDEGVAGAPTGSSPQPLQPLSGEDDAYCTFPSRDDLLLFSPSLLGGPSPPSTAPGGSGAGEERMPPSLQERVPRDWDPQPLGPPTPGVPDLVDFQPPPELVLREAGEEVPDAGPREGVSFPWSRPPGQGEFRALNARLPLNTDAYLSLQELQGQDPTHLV
T2 sequence (looked up) 3: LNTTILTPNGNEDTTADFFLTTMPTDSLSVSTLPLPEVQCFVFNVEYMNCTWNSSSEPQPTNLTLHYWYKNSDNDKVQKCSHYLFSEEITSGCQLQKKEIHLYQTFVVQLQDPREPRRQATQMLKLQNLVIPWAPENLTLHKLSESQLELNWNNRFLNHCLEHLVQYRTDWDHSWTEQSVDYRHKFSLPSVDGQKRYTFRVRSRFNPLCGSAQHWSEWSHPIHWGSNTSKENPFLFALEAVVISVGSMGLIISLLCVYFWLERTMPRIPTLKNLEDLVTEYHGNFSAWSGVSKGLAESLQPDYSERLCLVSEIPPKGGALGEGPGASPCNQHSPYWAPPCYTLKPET

[3] = target: T1, human PD-1 on cells (HEK-PD-1 reporter …); remark: listed apart in the source
[4] = target: T3, human IL-12 receptor complex (IL-12Rβ1 and IL-12Rβ2) (human, UniProt P42701 24-662; Q99665 24-862)
T3 sequence (Q99665 24-862, chain 2 of 2, other chains not shown): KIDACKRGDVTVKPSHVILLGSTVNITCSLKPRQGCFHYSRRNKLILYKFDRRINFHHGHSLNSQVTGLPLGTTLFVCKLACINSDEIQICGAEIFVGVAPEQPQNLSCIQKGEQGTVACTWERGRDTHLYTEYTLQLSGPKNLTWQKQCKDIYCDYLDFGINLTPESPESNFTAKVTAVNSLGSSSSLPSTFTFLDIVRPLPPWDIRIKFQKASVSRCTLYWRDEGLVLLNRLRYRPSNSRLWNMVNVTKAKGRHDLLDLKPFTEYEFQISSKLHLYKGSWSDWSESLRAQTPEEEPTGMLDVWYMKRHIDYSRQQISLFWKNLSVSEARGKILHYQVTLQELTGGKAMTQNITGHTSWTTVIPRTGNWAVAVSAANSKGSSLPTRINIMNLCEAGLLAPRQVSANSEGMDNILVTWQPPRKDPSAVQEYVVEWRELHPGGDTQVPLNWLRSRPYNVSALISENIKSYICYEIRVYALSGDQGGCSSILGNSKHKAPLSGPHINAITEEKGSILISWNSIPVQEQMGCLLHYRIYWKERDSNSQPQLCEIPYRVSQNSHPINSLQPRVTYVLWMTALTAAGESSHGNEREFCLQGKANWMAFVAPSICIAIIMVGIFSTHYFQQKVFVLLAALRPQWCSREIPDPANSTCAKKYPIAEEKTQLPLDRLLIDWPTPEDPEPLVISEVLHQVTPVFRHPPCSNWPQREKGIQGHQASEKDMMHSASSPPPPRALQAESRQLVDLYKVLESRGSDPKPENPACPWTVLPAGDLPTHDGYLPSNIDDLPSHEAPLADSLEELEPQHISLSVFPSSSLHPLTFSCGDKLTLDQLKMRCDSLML

[5] = target: T4, human TIGIT on HEK-Blue reporter cells (human, UniProt Q495A1 22-244)
T4 sequence (looked up): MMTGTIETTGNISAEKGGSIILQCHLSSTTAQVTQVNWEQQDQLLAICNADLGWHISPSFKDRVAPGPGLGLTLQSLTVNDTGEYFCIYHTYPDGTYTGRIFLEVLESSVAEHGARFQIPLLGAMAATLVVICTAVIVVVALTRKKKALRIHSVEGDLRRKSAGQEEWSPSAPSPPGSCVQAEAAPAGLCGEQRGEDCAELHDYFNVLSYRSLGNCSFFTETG

[6] = target: T3, human IL-12 receptor complex (IL-12Rβ1 …); remark: listed apart in the source
[7] = target: T2, human IL-2 receptor (IL-2Rα, IL-2Rβ, …); remark: listed apart in the source

IL-2 signal transduction, HEK-IL-2-PD-1 [1]: 76%
IL-2 signal transduction, HEK-IL-2 [2]: 16%
B1: IL-2(R38D/K43E/E61R)/PD-L1(mut2)-Fc (Fc fusion)
chain 1: FTVTVPKDLYVVEYGSNMTIECKFPVEKQLDLAALQVYWMMEDKNIIQFVHGEEDLKVQHSSYRQRARLLKDQLSLGNAALQITDVKLQDAGVYTCLIAYKGADYKRITVKVNAPYNKINQRILVVDPVTSEHELTCQAEGYPKAEVIWTSSDHQVLSGKTTTTNSKREEKLFNVTSTLRINTTTNEIFYCTFRRLDPEENHTAELVIPELPLAHPPNERGGGGSGGGDKTHTCPPCPAPEDEGGPSVFLFPPKPKDTLMISRTPEVTCVVVDVSHEDPEVKFNWYVDGVEVHNAKTKPREEQYNSTYRVVSVLTVLHQDWLNGKEYKCKVSNKALPAPIEKTISKAKGQPREPQVYVYPPSREEMTKNQVSLTCLVKGFYPSDIAVEWESNGQPENNYKTTPPVLDEDGSFALVSKLTVDKSRWQQGNVFSCSVMHEALHNHYTQKSLSLSPGK
chain 2: FTVTVPKDLYVVEYGSNMTIECKFPVEKQLDLAALQVYWMMEDKNIIQFVHGEEDLKVQHSSYRQRARLLKDQLSLGNAALQITDVKLQDAGVYTCLIAYKGADYKRITVKVNAPYNKINQRILVVDPVTSEHELTCQAEGYPKAEVIWTSSDHQVLSGKTTTTNSKREEKLFNVTSTLRINTTTNEIFYCTFRRLDPEENHTAELVIPELPLAHPPNERGGGSGAPTSSSTKKTQLQLEHLLLDLQMILNGINNYKNPKLTDMLTFEFYMPKKATELKHLQCLERELKPLEEVLNLAQSKNFHLRPRDLISNINVIVLELKGSETTFMCEYADETATIVEFLNRWITFCQSIISTLTGGGGSGGGDKTHTCPPCPAPEKKGGPSVFLFPPKPKDTLMISRTPEVTCVVVDVSHEDPEVKFNWYVDGVEVHNAKTKPREEQYNSTYRVVSVLTVLHQDWLNGKEYKCKVSNKALPAPIEKTISKAKGQPREPQVYVLPPSREEMTKNQVSLLCLVKGFYPSDIAVEWESNGQPENRYMTWPPVLDSDGSFFLYSKLTVDKSRWQQGNVFSCSVMHEALHNHYTQKSLSLSPGK

IL-2 signal transduction, HEK-IL-2-PD-1 [1]: 35%
IL-2 signal transduction, HEK-IL-2 [2]: 4%
B2: IL-2(L18R/Q22E/R38D/K43E/E61R)/PD-L1(mut2)-Fc (Fc fusion)
chain 1: B1 chain 1
chain 2: B1 chain 2 with L243R, Q247E

IL-2 signal transduction, HEK-IL-2-PD-1 [1]: 20%
IL-2 signal transduction, HEK-IL-2 [2]: 2%
B3: IL-2(R38D/K43E/E61R/Q126T)/PD-L1(mut2)-Fc (Fc fusion)
chain 1: B1 chain 1
chain 2: B1 chain 2 with Q351T

IL-2 signal transduction, HEK-IL-2-PD-1 [1]: 5%
IL-2 signal transduction, HEK-IL-2 [2]: < 0.1%
B4: IL-2(L18R/Q22E/R38D/K43E/E61R/Q126T)/PD-L1(mut2)-Fc (Fc fusion)
chain 1: B1 chain 1
chain 2: B1 chain 2 with L243R, Q247E, Q351T

IL-2 signal transduction, HEK-IL-2-PD-1 [1]: < 0.1%
IL-2 signal transduction, HEK-IL-2 [2]: < 0.1%
B5: IL-2(L18R/Q22E/R38D/K43E/E61R/Q126T/S130R)/PD-L1(mut2)-Fc (Fc fusion)
chain 1: B1 chain 1
chain 2: B1 chain 2 with L243R, Q247E, Q351T, S355R

IFN-γ release, activated PBMC [3]: 12 ng/mL
IL-12 signal transduction, HEK-IL-12-PD-1 (high) [3]: 3%
IL-12 signal transduction, HEK-IL-12-PD-1 (low) [3]: < 0.2%
IL-12 signal transduction, HEK IL-12 [4]: < 0.2%
B6: IL-12(E59A/F60A)/anti-PD-1(N99A) (antibody)
light: not shown
heavy: not shown
heavy (part 1 of 2): QVQLVESGGGVVQPGRSLRLDCKASGITFSNSGMHWVRQAPGKGLEWVAVIWYDGSKRYYADSVKGRFTISRDNSKNTLFLQMNSLRAEDTAVYYCATADDYWGQGTLVTVSSAS
heavy (part 2 of 2): EPKSCDKTHTCPPCPAPEKKGGPSVFLFPPKPKDTLMISRTPEVTCVVVDVSHEDPEVKFNWYVDGVEVHNAKTKPREEQYNSTYRVVSVLTVLHQDWLNGKEYKCKVSNKALPAPIEKTISKAKGQPREPQVYVLPPSREEMTKNQVSLLCLVKGFYPSDIAVEWESNGQPENRYMTWPPVLDSDGSFFLYSKLTVDKSRWQQGNVFSCSVMHEALHNHYTQKSLSLSPGK

IFN-γ release, activated PBMC [3]: 13 ng/mL
IL-12 signal transduction, HEK-IL-12-PD-1 (high) [3]: < 0.2%
IL-12 signal transduction, HEK-IL-12-PD-1 (low) [3]: < 0.2%
IL-12 signal transduction, HEK IL-12 [4]: < 0.2%
B7: IL-12(E59A/F60A)/anti-PD-1(N99M) (antibody)
light: not shown
heavy: not shown
heavy (part 1 of 2): B6 heavy (part 1 of 2) with A99M
heavy (part 2 of 2): B6 heavy (part 2 of 2)

IL-2 signal transduction, HEK-IL-2-TIGIT [5]: 18%
IL-12 signal transduction, HEK-IL-12-TIGIT [5]: 29%
IL-12 signal transduction, HEK-IL-12 [6]: < 0.2%
IL-2 signal transduction, HEK-IL-2 [7]: 5%
B8: IL-2(L18R/Q22E/R38D/K43E/E61R/Q126T)/CD155-Fc/IL-12(E59A/F60A) (Fc fusion)
chain 1: WPPPGTGDVVVQAPTQVPGFLGDSVTLPCYLQVPNMEVTHVSQLTWARHGESGSMAVFHQTQGPSYSESKRLEFVAARLGAELRNASLRMFGLRVEDEGNYTCLFVTFPQGSRSVDIWLRVLAKPQNTAEVQKVQLTGEPVPMARCVSTGGRPPAQITWHSDLGGMPNTSQVPGFLSGTVTVTSLWILVPSSQVDGKNVTCKVEHESFEKPQLLTVNLTVYYPPEVSISGYDNNWYLGQNEATLTCDARSNPEPTGYNWSTTMGPLPPFAVAQGAQLLIRPVDKPINTTLICNVTNALGARQAELTVQVKEGPPSEHSGISRNGGGGSGGGDKTHTCPPCPAPEDEGGPSVFLFPPKPKDTLMISRTPEVTCVVVDVSHEDPEVKFNWYVDGVEVHNAKTKPREEQYNSTYRVVSVLTVLHQDWLNGKEYKCKVSNKALPAPIEKTISKAKGQPREPQVYVYPPSREEMTKNQVSLTCLVKGFYPSDIAVEWESNGQPENNYKTTPPVLDEDGSFALVSKLTVDKSRWQQGNVFSCSVMHEALHNHYTQKSLSLSPGKGGGGSGGGIWELKKDVYVVELDWYPDAPGEMVVLTCDTPEEDGITWTLDQSSEVLGSGKTLTIQVKAAGDAGQYTCHKGGEVLSHSLLLLHKKEDGIWSTDILKDQKEPKNKTFLRCEAKNYSGRFTCWWLTTISTDLTFSVKSSRGSSDPQGVTCGAATLSAERVRGDNKEYEYSVECQEDSACPAAEESLPIEVMVDAVHKLKYENYTSSFFIRDIIKPDPPKNLQLKPLKNSRQVEVSWEYPDTWSTPHSYFSLTFCVQVQGKSKREKKDRVFTDKTSATVICRKNASISVRAQDRYYSSSWSEWASVPCSGGGGSGGGSGGGGSRNLPVATPDPGMFPCLHHSQNLLRAVSNMLQKARQTLEFYPCTSEEIDHEDITKDKTSTVEACLPLELTKNESCLNSRETSFITNGSCLASRKTSFMMALCLSSIYEDLKMYQVEFKTMNAKLLMDPKRQIFLDQNMLAVIDELMQALNFNSETVPQKSSLEEPDFYKTKIKLCILLHAFRIRAVTIDRVMSYLNAS
chain 2: WPPPGTGDVVVQAPTQVPGFLGDSVTLPCYLQVPNMEVTHVSQLTWARHGESGSMAVFHQTQGPSYSESKRLEFVAARLGAELRNASLRMFGLRVEDEGNYTCLFVTFPQGSRSVDIWLRVLAKPQNTAEVQKVQLTGEPVPMARCVSTGGRPPAQITWHSDLGGMPNTSQVPGFLSGTVTVTSLWILVPSSQVDGKNVTCKVEHESFEKPQLLTVNLTVYYPPEVSISGYDNNWYLGQNEATLTCDARSNPEPTGYNWSTTMGPLPPFAVAQGAQLLIRPVDKPINTTLICNVTNALGARQAELTVQVKEGPPSEHSGISRNGGGSGAPTSSSTKKTQLQLEHLRLDLEMILNGINNYKNPKLTDMLTFEFYMPKKATELKHLQCLERELKPLEEVLNLAQSKNFHLRPRDLISNINVIVLELKGSETTFMCEYADETATIVEFLNRWITFCTSIISTLTGGGGSGGGDKTHTCPPCPAPEKKGGPSVFLFPPKPKDTLMISRTPEVTCVVVDVSHEDPEVKFNWYVDGVEVHNAKTKPREEQYNSTYRVVSVLTVLHQDWLNGKEYKCKVSNKALPAPIEKTISKAKGQPREPQVYVLPPSREEMTKNQVSLLCLVKGFYPSDIAVEWESNGQPENRYMTWPPVLDSDGSFFLYSKLTVDKSRWQQGNVFSCSVMHEALHNHYTQKSLSLSPGK

IL-2 signal transduction, HEK-IL-2-TIGIT [5]: < 0.1%
IL-12 signal transduction, HEK-IL-12-TIGIT [5]: 24%
IL-12 signal transduction, HEK-IL-12 [6]: 3%
IL-2 signal transduction, HEK-IL-2 [7]: < 0.1%
B9: IL-2(L18R/Q22E/R38D/K43E/E61R/Q126T/S130R)/CD155-Fc/IL-12(E59A/F60A) (Fc fusion)
chain 1: B8 chain 1
chain 2: B8 chain 2 with S458R
